First the molecules themselves.
B1: S64P (protein)
chain: RAETGSKGQTAGELYQRWERYRRECQETLAAAEPPSGLACNGPFDMYVCWDYAAPNATARASCPWYLPWHHHVAAGFVLRQCGSDGQWGLWRDHTQCENPEKNEAFLDQRLILERLQVMYTVGYSLSLATLLLALLILSLFRRLHCTRNYIHINLFTSFMLRAAAILSRDRLLPRPGPYLGDQALALWNQALAACRTAQIVTQYCVGANYTWLLVEGVYLHSLLVLVGGSEEGHFRYYLLLGWGAPALFVIPWVIVRYLYENTQCWERNEVKAIWWIIRTPILMTILINFLIFIRILGILLSKLRTRQMRCRDYRLRLARSTLTLVPLLGVHEVVFAPVTEEQARGALRFAKLGFEIFLSSFQGFLVSVLYCFINKEVQSEIRRGWHHCRLRRSLGEEQRQLPERAFRALPSGSGPGEVPTSRGLSSGTLPGPGNEASRELESYC
B2: M67R (protein)
chain: B1 chain with P43S, M46R
B3: Y73H (protein)
chain: B1 chain with P43S, Y52H
B4: V99I (protein)
chain: B1 chain with P43S, V78I
B5: R101H (protein)
chain: B1 chain with P43S, R80H
B6: T116R (protein)
chain: B1 chain with P43S, T95R
B7: G144S (protein)
chain: B1 chain with P43S, G123S

Where a chain is given by its changes, count along the chain named. Numbers in names are those of the source.

One assay concerns the target T1, GIPR S64P (Homo sapiens, UniProt P48546, S64P).
T1 construct: host or cells: HEK293
T1 sequence (P48546 22-466 S64P): B1 chain
As to the kind of experiment: cAMP accumulation. Format: cell-based.
Settings: not given
In general terms: cAMP levels reflect the balance of adenylyl cyclase and phosphodiesterase activity.
On to B1, for which the “Efficacy at 100pmol (cAMP)” value was determined as 0.

For a further assay, the target named is T2, GIPR M67R (Homo sapiens, UniProt P48546, M67R).
T2 construct: host or cells: HEK293
T2 sequence (P48546 22-466 M67R): B1 chain with P43S, M46R
The experiment in a line: cAMP accumulation. Format: cell-based.
Settings: not given
On to B2, for which the “Efficacy at 100pmol (cAMP)” value was 0.1344.

The target of the next assay is T3, GIPR Y73H (Homo sapiens, UniProt P48546, Y73H).
T3 construct: host or cells: HEK293
T3 sequence (P48546 22-466 Y73H): B1 chain with P43S, Y52H
The experiment in a line: cAMP accumulation. Format: cell-based.
Settings: not given
With B3, the “Efficacy at 100pmol (cAMP)” value worked out at 0.06277.

The next assay addresses T4, GIPR V99I (Homo sapiens, UniProt P48546, V99I).
T4 construct: host or cells: HEK293
T4 sequence (P48546 22-466 V99I): B1 chain with P43S, V78I
The experiment in a line: cAMP accumulation. Format: cell-based.
Settings: not given
Take B4: the “Efficacy at 100pmol (cAMP)” value worked out at 0.04155.

The next assay concerns the target T5, GIPR R101H (Homo sapiens, UniProt P48546, R101H).
T5 construct: host or cells: HEK293
T5 sequence (P48546 22-466 R101H): B1 chain with P43S, R80H
The experiment in a line: cAMP accumulation. Format: cell-based.
Settings: not given
Take B5: the “Efficacy at 100pmol (cAMP)” value is listed as 0.

The next assay concerns the target T6, GIPR T116R (Homo sapiens, UniProt P48546, T116R).
T6 construct: host or cells: HEK293
T6 sequence (P48546 22-466 T116R): B1 chain with P43S, T95R
As to the kind of experiment: cAMP accumulation. Format: cell-based.
Settings: not given
On to B6, for which the “Efficacy at 100pmol (cAMP)” value was 0.03526.

In a further assay the target is T7, GIPR G144S (Homo sapiens, UniProt P48546, G144S).
T7 construct: host or cells: HEK293
T7 sequence (P48546 22-466 G144S): B1 chain with P43S, G123S
As to the kind of experiment: cAMP accumulation. Format: cell-based.
Settings: not given
In the case of B7, the “Efficacy at 100pmol (cAMP)” value came to 0.204.

The test system of a further assay is GIPR variants (groups). The experiment in a line: cAMP accumulation. Format: cell-based, human. Particulars: cAMP part of the in vitro group.
Method: HEK293 (CRL-1573, American Type Culture Collection) and β-arrestin 1/2 knockout cells, generated from HEK293A[48], were used for cAMP measurement, homologues competition binding and β-arrestin 2 recruitment. For the internalization assay, endosomal signalling and basal receptor localization experiments, HEK293A (R70507, Thermo Fisher) cells were used. Both cell lines were cultured at 5% CO2 at 37 °C in Roswell Park Memorial Institute GlutaMAX-I supplemented with 10% fetal bovine serum, 180 units ml^−1 penicillin, and 45 g ml^−1 streptomycin. For the cAMP and binding experiments, cells were transfected with the calcium phosphate precipitation method[49]. The polyethyleneimine (PEI) transfection method was used for the β-arrestin 2 recruitment assays[50], endosomal signalling and basal receptor localization assays, while the lipofectamine transfection method was used for the internalization assay.
cAMP production was measured with the DiscoverX Hithunter cAMP assay according to the manufacturer’s protocol (DiscoverX). […] On the day of the assay, the cells were washed twice with HEPES-buffered saline (HBS) and incubated with HBS and 1 mM 3-isobutyl-1-methylxanthine for 30 min at 37 °C. […] After the incubation, the assay medium was removed from the plate and the cells were washed with 30 µl PBS and treated with 40 µl enzyme donor–lysis buffer–chemiluminescent reagents and 10 µl cAMP antibodies for 60 min before 40 µl enzyme acceptor solution added. After a 3-h incubation on a shaking table in the dark, the cAMP accumulation was measured based on luminescence with a Perkin Elmer EnVision 2104 Multilabel Microplate Reader.
For cAMP accumulation, the data were fitted as a sigmoidal curve with a Hill slope of 1; for homologous competition binding, the data were fitted as a sigmoidal curve with a Hill slope of −1.
In the case of B1, the “In vitro groups (cAMP)” value is “LoF_camp”.
Still for that read-out and setting: the entry for B3 is “LoF_camp”; for B4 it is “LoF_camp”; for B6 it is “LoF_camp”.
For the molecule B2, the “In vitro groups (cAMP)” value was “LoF_camp”.
Same read-out and setting: the entry for B7 is “LoF_camp”; for B5 it is “LoF_camp”.

The same assay, now with this note: cAMP production compared with WT.
B1: the percentage_camp is less than 50% cAMP.
With B3, the percentage_camp was less than 50% cAMP.
The same measure, in the same setting: the figure for B4 is less than 50% cAMP.
The same measure, in the same setting: in the case of B6 it was less than 50% cAMP.
B2: the percentage_camp is given as less than 50% cAMP.
The same measure, in the same setting: the figure for B7 is less than 50% cAMP.
Still for that read-out and setting: the figure for B5 is less than 50% cAMP.

Still in this assay, the particulars now being: in vitro cAMP production per GIPR variant.
Regarding B1, the “Beta, cAMP” value came out at 0.
Still for that read-out and setting: in the case of B3 it was 0.06277.
B4: the “Beta, cAMP” value turned out to be 0.04155.
Still for that read-out and setting: the figure for B6 is 0.
Still for that read-out and setting: the figure for B2 is 0.1344.
As to B7, the “Beta, cAMP” value worked out at 0.204.
Same read-out and setting: in the case of B5 it was 0.

A further assay deals with GIPR variants (groups). As to the kind of experiment: β-arrestin 2 recruitment (BRET).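 Also: BRET readout of β-arrestin 2 recruitment in transiently transfected HEK293 cells expressing WT GIPR or a GIPR variant plus GPCR kinase 2, Rluc8 donor and citrine acceptor.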 Particulars: arr part of the in vitro group.
As to B1, the “In vitro groups (β-arrestin)” value was “LoF_arr”.
The same measure, in the same setting: in the case of B3 it was “WT-like_arr”; in that of B4, “WT-like_arr”; in that of B6, “WT-like_arr”.
In the case of B2, the “In vitro groups (β-arrestin)” value is reported as “WT-like_arr”.
Turning to B7, the “In vitro groups (β-arrestin)” value is recorded as “LoF_arr”.
Still for that read-out and setting: the entry for B5 is “LoF_arr”.

The same assay, now with this note: in vitro β-arrestin recruitment per GIPR variant.
Turning to B1, the “Beta, Barr” value was found to be 0.
Still for that read-out and setting: the figure for B3 is 1.323; for B4 it is 0.6225.
Same read-out and setting: in the case of B6 it was 0.6218; in that of B2, 1.452; in that of B7, 0.
The same measure, in the same setting: in the case of B5 it was 0.

Values taken from PMC11272584 (Nature Metabolism, 2024).
